Residue numbers refer to the chain shown, from its start.
T1: SK-OV-3细胞上的CD73 (human, UniProt P21589 27-549)
T1 construct: whole, on cells; Endogenous CD73 of the human CD73-positive cell line SK-OV-3; also called 人CD73阳性细胞; SK-OV-3细胞表面的CD73
T1 sequence (looked up): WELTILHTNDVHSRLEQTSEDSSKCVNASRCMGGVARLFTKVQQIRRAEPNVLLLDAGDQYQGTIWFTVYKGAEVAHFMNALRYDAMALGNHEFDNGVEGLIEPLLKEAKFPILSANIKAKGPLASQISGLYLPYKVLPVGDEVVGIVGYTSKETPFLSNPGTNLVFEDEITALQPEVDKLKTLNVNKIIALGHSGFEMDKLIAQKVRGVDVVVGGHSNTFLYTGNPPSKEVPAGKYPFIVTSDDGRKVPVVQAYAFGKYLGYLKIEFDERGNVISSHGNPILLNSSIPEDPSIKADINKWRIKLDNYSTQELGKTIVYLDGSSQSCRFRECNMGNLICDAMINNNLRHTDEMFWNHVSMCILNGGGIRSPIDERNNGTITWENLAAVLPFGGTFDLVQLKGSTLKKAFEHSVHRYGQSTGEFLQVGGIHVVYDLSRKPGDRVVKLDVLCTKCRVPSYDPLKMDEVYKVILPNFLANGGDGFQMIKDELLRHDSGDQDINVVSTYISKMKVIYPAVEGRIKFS

T2: 重组人CD73蛋白 (human, UniProt P21589 27-547, limits assumed)
T2 construct: Coated at 3 ug/ml in the ELISA and used at 5 ug/ml in the enzyme assay; also called rhCD73
T2 sequence (looked up): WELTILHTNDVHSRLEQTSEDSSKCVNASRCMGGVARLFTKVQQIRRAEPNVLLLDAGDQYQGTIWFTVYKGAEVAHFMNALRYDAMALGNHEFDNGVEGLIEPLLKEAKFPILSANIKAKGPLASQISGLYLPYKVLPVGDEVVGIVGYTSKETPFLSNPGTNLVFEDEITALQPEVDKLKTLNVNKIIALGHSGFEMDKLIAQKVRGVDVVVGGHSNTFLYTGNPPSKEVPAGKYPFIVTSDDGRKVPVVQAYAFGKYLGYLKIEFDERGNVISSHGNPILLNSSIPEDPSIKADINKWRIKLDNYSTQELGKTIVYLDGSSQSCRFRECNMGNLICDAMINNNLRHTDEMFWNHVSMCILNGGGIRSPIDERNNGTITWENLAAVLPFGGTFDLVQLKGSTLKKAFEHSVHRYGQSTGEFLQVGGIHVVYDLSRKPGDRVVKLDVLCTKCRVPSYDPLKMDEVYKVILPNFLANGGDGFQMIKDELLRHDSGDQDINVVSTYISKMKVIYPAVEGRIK

B1: 137-4 (antibody, IgG1, V domains shown)
VH: QVQLVQSGAEVKKPGSSVKVSCKASGYSFTGYYIHWVRQAPGQGLEWMGRINPYNGATTYNQNFKDRVTITVDKSTSTAYMELSSLRSEDTAVYYCARFHYGAVDYWGQGTLVTVSS
VL: DIQMTQSPSSLSASVGDRVTITCKASQDINTYLTWYQQKPGKAPKTLIYRANILVDGVPSRFSGSGSGTDFTLTISSLQPEDFATYYCLQYEEFPLTFGGGTKVEIKR
notes: also called 人源化CD73抗体; CQ137人源化抗体; not shown: kappa constant region
B2: 137-8 (antibody, IgG1, V domains shown)
VH: B1 VH with V104P, Y106F
VL: B1 VL with E92D, E93Q
notes: as for B1
B3: 137-7 (antibody, IgG1, V domains shown)
VH: B1 VH with V104P, D105N
VL: B1 VL with E92D, E93D
notes: as for B1
B4: 137-6 (antibody, IgG1, V domains shown)
VH: B1 VH with V104P, D105E
VL: B1 VL with E92A
notes: as for B1
B5: 137-5 (antibody, IgG1, V domains shown)
VH: B1 VH with V104A
VL: B1 VL with E92N
notes: as for B1
B6: 137-9 (antibody, IgG1, V domains shown)
VH: B1 VH with V104P, Y106L
VL: B1 VL with E92D, E93A
notes: as for B1

Columns and labels:
[1] = biological target: T1, SK-OV-3细胞上的CD73; experiment: flow cytometry on SK-OV-3 cells, Anti-hFC-APC
[2] = biological target: T2, 重组人CD73蛋白; experiment: ELISA, recombinant human CD73 coated at 3 ug/ml

Row | Binder | binding result [1] | binding result [2]
1 | B1 | binds | binds
2 | B2 | binds | binds
3 | B3 | binds | binds
4 | B4 | binds | binds
5 | B5 | binds | binds
6 | B6 | binds | binds

Reference: CN113045659A (NOVOPROTEIN SCIENT INC, dated 2021)
